Assay results published in the supplement of paper PMC10065799, “High-throughput profiling of sequence recognition by tyrosine kinases and SH2 domains using bacterial peptide display” (eLife, 2023).

What was measured:
Grb2 SH2 = Grb2 SH2 (UniProt P62993); experiment: SH2 binding enrichment of the phosphorylated peptide, bacterial display (enrichment ratio); higher = better substrate or ligand; peptides without Tyr show the background
SHP2-C SH2 = experiment: as above
c-Src SH2 = experiment: as above
Fyn = Fyn (UniProt P06241); experiment: phosphorylation enrichment, bacterial display (enrichment ratio); higher = better substrate or ligand; peptides without Tyr show the background
Sequence of Fyn (P06241 whole entry, looked up): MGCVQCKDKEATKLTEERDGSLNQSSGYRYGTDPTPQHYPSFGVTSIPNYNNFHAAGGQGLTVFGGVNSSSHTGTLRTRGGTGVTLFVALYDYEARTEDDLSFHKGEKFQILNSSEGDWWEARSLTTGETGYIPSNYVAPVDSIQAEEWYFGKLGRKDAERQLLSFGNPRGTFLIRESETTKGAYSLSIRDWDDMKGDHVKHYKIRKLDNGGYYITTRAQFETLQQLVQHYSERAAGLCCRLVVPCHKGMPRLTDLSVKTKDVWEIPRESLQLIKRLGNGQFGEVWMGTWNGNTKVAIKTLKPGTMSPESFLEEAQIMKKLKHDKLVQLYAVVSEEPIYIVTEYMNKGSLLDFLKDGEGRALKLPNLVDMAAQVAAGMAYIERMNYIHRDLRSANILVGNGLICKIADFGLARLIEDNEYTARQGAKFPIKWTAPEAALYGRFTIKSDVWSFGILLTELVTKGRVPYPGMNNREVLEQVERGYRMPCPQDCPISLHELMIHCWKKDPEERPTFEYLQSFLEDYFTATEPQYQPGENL

Jak2 = Jak2 (UniProt O60674); experiment: as above
Sequence of Jak2 (O60674 whole entry, looked up): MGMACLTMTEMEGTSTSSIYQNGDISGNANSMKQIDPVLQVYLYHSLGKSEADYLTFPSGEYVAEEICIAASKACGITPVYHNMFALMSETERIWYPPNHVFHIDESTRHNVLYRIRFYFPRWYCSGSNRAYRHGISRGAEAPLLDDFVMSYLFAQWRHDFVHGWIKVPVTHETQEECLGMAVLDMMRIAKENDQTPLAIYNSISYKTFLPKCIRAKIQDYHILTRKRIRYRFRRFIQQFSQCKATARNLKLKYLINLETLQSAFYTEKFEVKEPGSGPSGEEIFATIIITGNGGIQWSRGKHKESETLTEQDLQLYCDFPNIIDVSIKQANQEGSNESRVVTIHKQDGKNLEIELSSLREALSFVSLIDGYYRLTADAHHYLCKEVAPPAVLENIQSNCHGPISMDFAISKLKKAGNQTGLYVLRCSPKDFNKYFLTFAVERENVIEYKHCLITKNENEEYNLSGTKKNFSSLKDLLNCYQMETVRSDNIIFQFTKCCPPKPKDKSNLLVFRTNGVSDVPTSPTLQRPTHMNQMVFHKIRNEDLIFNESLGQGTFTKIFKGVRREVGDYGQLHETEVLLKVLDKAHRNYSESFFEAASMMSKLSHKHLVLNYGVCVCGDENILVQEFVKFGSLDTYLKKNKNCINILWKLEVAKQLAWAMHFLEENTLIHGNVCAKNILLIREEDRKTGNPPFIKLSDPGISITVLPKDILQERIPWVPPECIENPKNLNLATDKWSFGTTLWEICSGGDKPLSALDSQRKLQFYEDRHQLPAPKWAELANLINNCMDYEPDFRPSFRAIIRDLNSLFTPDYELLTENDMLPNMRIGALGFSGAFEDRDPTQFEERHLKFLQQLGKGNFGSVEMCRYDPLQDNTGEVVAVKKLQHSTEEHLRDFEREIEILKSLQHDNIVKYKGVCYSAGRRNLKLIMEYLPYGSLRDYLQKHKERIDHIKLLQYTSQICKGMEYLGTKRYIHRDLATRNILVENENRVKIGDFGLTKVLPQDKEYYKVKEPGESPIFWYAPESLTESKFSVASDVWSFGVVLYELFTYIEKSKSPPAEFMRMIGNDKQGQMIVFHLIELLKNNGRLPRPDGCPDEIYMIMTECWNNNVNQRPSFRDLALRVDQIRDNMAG

c-Abl (mouse) = experiment: as above
EPHB1 = EPHB1 (UniProt P54762); experiment: as above
c-Src = experiment: as above
AncSZ = experiment: as above
Fer (mouse) = experiment: as above
FGFR3 = FGFR3 (UniProt P22607); experiment: as above
EPHB2 = EPHB2 (UniProt P29323); experiment: as above
Sequence of EPHB2 (P29323 whole entry, looked up): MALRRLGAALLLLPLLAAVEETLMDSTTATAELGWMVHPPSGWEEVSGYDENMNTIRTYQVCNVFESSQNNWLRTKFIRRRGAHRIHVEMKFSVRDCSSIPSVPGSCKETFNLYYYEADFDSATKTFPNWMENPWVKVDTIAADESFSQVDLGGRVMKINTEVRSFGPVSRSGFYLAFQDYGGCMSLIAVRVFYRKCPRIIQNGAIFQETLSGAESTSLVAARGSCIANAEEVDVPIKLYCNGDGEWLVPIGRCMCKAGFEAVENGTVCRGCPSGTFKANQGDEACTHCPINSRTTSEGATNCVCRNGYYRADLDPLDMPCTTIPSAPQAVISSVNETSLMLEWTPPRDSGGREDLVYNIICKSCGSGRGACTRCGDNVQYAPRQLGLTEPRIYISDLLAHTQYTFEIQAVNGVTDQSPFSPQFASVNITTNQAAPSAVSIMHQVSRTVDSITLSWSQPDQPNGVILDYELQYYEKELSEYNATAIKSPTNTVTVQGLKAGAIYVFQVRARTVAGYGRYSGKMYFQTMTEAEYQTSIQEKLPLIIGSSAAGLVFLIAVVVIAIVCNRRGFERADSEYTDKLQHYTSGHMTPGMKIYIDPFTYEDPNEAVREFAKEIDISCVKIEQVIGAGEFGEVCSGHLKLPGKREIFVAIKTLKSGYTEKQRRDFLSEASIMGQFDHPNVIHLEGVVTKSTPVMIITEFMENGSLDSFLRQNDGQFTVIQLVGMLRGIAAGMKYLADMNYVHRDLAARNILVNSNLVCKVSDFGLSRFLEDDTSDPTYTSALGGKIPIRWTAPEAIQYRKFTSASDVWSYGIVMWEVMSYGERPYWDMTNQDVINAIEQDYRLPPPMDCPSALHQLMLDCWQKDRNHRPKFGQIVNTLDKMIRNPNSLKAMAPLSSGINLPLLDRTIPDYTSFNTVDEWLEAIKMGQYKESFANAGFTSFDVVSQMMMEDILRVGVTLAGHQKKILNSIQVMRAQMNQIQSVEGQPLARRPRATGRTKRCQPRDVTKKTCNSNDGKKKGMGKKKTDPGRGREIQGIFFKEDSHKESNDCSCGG

Fes = Fes (UniProt P07332); experiment: as above
Sequence of Fes (P07332 whole entry, looked up): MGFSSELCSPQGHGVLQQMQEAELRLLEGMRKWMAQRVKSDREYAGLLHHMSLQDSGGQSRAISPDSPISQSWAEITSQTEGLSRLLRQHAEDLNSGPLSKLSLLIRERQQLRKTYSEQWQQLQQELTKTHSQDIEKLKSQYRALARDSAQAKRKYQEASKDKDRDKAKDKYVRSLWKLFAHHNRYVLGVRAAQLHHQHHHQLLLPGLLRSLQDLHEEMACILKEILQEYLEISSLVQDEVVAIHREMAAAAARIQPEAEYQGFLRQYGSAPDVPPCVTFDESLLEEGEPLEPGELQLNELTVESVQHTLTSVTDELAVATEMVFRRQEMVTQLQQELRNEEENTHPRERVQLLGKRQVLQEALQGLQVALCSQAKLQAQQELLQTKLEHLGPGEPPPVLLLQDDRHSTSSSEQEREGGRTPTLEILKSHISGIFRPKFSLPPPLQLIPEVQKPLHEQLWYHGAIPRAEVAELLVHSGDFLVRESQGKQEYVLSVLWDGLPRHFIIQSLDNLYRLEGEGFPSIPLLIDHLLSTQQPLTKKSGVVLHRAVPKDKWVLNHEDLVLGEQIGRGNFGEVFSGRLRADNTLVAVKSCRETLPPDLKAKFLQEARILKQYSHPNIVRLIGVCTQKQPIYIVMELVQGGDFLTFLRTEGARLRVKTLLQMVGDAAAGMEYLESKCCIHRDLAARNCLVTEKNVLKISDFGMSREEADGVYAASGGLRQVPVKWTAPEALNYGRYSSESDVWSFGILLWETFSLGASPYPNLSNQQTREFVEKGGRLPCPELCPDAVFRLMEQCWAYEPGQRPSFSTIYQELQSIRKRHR

FGFR1 = FGFR1 (UniProt P11362); experiment: as above
Sequence of FGFR1 (P11362 whole entry, looked up): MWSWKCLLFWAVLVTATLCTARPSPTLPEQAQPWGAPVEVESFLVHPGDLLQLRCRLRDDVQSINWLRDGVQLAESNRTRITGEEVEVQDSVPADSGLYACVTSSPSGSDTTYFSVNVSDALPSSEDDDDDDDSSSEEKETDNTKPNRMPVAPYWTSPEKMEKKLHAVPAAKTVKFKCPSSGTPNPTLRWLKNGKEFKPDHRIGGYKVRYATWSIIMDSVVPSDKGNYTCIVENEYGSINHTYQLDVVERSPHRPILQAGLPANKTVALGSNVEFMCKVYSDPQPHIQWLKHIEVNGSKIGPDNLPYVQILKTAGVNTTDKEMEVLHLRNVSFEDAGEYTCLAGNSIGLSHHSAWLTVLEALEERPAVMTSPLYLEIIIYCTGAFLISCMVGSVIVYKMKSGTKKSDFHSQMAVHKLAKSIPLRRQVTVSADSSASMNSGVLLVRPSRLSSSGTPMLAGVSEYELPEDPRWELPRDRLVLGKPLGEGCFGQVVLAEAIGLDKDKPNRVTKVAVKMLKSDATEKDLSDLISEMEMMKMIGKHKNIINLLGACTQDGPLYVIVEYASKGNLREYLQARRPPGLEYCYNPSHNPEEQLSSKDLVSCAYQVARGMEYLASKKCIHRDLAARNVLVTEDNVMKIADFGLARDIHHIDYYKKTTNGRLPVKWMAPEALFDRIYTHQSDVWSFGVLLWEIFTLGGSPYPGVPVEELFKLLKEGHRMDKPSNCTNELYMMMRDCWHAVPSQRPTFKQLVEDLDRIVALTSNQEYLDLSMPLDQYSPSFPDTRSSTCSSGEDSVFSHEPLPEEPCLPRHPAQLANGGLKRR

MERTK = MERTK (UniProt Q12866); experiment: as above
Hck = Hck (UniProt P08631); experiment: as above
Sequence of Hck (P08631 whole entry, looked up, the tested form may be a part): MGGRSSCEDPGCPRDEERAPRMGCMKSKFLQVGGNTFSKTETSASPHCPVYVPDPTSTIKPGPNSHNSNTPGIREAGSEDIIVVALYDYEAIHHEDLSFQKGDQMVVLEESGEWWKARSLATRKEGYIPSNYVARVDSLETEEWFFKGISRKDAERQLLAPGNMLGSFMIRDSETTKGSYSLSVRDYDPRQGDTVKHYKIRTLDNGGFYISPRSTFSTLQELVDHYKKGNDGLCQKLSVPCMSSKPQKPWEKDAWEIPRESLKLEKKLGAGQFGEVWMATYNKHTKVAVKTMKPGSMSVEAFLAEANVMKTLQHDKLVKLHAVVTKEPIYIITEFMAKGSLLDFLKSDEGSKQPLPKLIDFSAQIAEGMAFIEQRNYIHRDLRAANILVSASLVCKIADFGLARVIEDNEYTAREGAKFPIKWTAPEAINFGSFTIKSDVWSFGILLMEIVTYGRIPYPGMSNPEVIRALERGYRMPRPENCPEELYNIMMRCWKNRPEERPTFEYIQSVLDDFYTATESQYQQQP
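Throughout, for SH2 binding enrichment of the phosphorylated peptide, bacterial display: peptide library displayed on the E. coli surface as eCPX fusions, selected cells deep-sequenced, score is each peptide's frequency after selection divided by its frequency in the input.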
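Throughout, for phosphorylation enrichment, bacterial display: 11-residue human phosphosite peptides and single-mutation variants displayed on the E. coli surface, counted by deep sequencing, each peptide's frequency after selection divided by its frequency in the unselected input library; frequency after pTyr selection over input frequency; kinase dosed for 20-30% of maximal phosphorylation in three min.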

| Sequence | SH2 binding enrichment (Grb2 SH2) | SH2 binding enrichment (SHP2-C SH2) | SH2 binding enrichment (c-Src SH2) | phosphorylation enrichment (Fyn) | phosphorylation enrichment (Jak2) | phosphorylation enrichment (c-Abl (mouse)) | phosphorylation enrichment (EPHB1) | phosphorylation enrichment (c-Src) | phosphorylation enrichment (AncSZ) | phosphorylation enrichment (Fer (mouse)) | phosphorylation enrichment (FGFR3) | phosphorylation enrichment (EPHB2) | phosphorylation enrichment (Fes) | phosphorylation enrichment (FGFR1) | phosphorylation enrichment (MERTK) | phosphorylation enrichment (Hck) |
| --- | --- | --- | --- | --- | --- | --- | --- | --- | --- | --- | --- | --- | --- | --- | --- | --- |
| DFLEKYFKFGC [NNMT_Y24_S29C_YF] | 0.84 | 0.763 | 0.674 | 0.435 | 0.993 | 0.768 | 0.55 | 0.549 | 1.11 | 0.554 | 0.73 | 0.545 | 1.38 | 0.497 | 0.507 | 0.417 |
| DGFTDYAEFAK [MCFD2_Y138_I136T_YF] | 0.823 | 0.864 | 0.547 | 0.974 | 1.34 | 0.811 | 0.88 | 1.11 | 1.24 | 0.477 | 0.752 | 0.741 | 1.31 | 0.654 | 0.542 | 0.954 |
| DGQVNYEGFVQ [CALM1_Y139_E141G] | 0.659 | 0.467 | 0.586 | 0.512 | 1.04 | 1.19 | 1.31 | 0.603 | 0.996 | 0.793 | 0.724 | 1.01 | 1.07 | 0.496 | 0.453 | 0.553 |
| DKATEYSQYMR [MAX_Y70_I71S] | 0.643 | 0.82 | 0.609 | 0.571 | 0.636 | 0.677 | 0.45 | 0.745 | 0.87 | 0.499 | 0.541 | 0.525 | 0.864 | 0.531 | 0.473 | 0.556 |
| DLDLTYIFPNI [PTEN_Y27_YF] | 0.738 | 0.547 | 0.329 | 6.27 | 2.57 | 1.17 | 2.03 | 3.89 | 4.58 | 0.56 | 2.77 | 1.15 | 1.34 | 3.31 | 3.52 | 1.76 |
| DLEKTYNTFRS [B4GALNT2_Y538_A533D_YF] | 0.846 | 0.629 | 0.506 | 0.967 | 0.736 | 0.523 | 0.445 | 1.75 | 0.656 | 0.391 | 0.55 | 0.319 | 0.851 | 0.431 | 0.291 | 0.734 |
| DLNATYRTIQG [U2SURP_Y634] | 0.876 | 0.814 | 0.813 | 0.646 | 0.609 | 0.641 | 0.578 | 0.674 | 0.631 | 0.518 | 0.6 | 0.751 | 0.846 | 0.583 | 0.473 | 0.688 |
| DLQDEYDFKCK [STAT1_Y170] | 0.825 | 0.561 | 0.448 | 0.543 | 1.19 | 0.877 | 0.598 | 0.546 | 1.28 | 0.555 | 0.772 | 0.702 | 1.31 | 0.668 | 0.538 | 0.766 |
| DLTQDYEEWKR [ORC6_Y232] | 0.982 | 0.647 | 0.55 | 0.707 | 1.28 | 0.84 | 0.796 | 0.696 | 1.8 | 0.715 | 0.862 | 0.882 | 1.47 | 0.509 | 0.526 | 0.845 |
| DMGAQYAAASR [ARID1B_Y483_P488R] | 0.761 | 0.553 | 0.612 | 0.37 | 0.49 | 0.644 | 0.371 | 0.365 | 0.575 | 0.393 | 0.396 | 0.375 | 0.54 | 0.357 | 0.31 | 0.402 |
| DNEFAYLKAII [HNF4A_Y288_YF] | 0.775 | 0.491 | 0.429 | 0.386 | 0.91 | 0.689 | 0.45 | 0.419 | 1.13 | 0.381 | 0.648 | 0.455 | 1.07 | 0.425 | 0.334 | 0.407 |
| DNPAKYFILEN [DPP10_Y512_S517N] | 0.659 | 0.636 | 0.828 | 0.459 | 1.41 | 0.935 | 0.59 | 0.495 | 1.03 | 0.531 | 0.617 | 0.456 | 1.2 | 0.557 | 0.509 | 0.392 |
| DPFHVYIKNRV [KCNE3_Y95_YF] | 1.13 | 0.936 | 0.604 | 0.415 | 1.08 | 0.692 | 0.604 | 0.31 | 1.27 | 0.486 | 0.764 | 0.464 | 1.19 | 0.455 | 0.369 | 0.437 |
| DSFWSYCNAVA [SLC20A2_Y436_S434W_YF] | 1.05 | 0.637 | 0.583 | 0.527 | 1.19 | 0.745 | 0.76 | 0.443 | 1.45 | 0.57 | 0.805 | 0.67 | 1.31 | 0.65 | 0.421 | 0.569 |
| DSIRDYEDGTE [CLNS1A_Y214_M218T] | 0.829 | 0.67 | 0.577 | 0.602 | 1.35 | 1.02 | 0.784 | 1.1 | 1.55 | 0.766 | 0.988 | 0.565 | 1.58 | 0.511 | 0.959 | 0.57 |
| DSYWSYCNAVA [SLC20A2_Y436_S434W] | 1.02 | 0.649 | 0.817 | 5.46 | 1.27 | 1.45 | 2.64 | 4.44 | 1.43 | 0.644 | 2.42 | 1.93 | 1.12 | 4.16 | 0.952 | 3.31 |
| DTERIYDDDFF [UBA1_Y560] | 0.836 | 0.611 | 0.599 | 0.748 | 1.63 | 1.01 | 0.661 | 0.736 | 1.36 | 0.995 | 0.876 | 0.62 | 1.41 | 0.605 | 0.702 | 0.668 |

| Sequence | SH2 binding enrichment (Grb2 SH2) | SH2 binding enrichment (SHP2-C SH2) | SH2 binding enrichment (c-Src SH2) | phosphorylation enrichment (Fyn) | phosphorylation enrichment (Jak2) | phosphorylation enrichment (c-Abl (mouse)) | phosphorylation enrichment (EPHB1) | phosphorylation enrichment (c-Src) | phosphorylation enrichment (AncSZ) | phosphorylation enrichment (Fer (mouse)) | phosphorylation enrichment (FGFR3) | phosphorylation enrichment (EPHB2) | phosphorylation enrichment (Fes) | phosphorylation enrichment (FGFR1) | phosphorylation enrichment (MERTK) | phosphorylation enrichment (Hck) |
| --- | --- | --- | --- | --- | --- | --- | --- | --- | --- | --- | --- | --- | --- | --- | --- | --- |
| DTLMEYLENPK [CYCS_Y68] | 0.915 | 0.872 | 0.502 | 0.484 | 1.28 | 0.95 | 0.672 | 0.562 | 1.51 | 0.677 | 0.905 | 0.682 | 1.49 | 0.511 | 0.529 | 0.69 |
| DTVRIYDDDFF [UBA1_Y560_E557V] | 0.93 | 0.578 | 0.909 | 0.555 | 1.27 | 0.726 | 0.777 | 0.522 | 1.28 | 0.619 | 0.642 | 0.626 | 1.24 | 0.602 | 0.592 | 0.538 |
| DVLEFYNSKKT [PAK1_Y131] | 0.731 | 0.576 | 0.752 | 0.525 | 1.11 | 0.925 | 0.517 | 0.504 | 1.08 | 1.13 | 0.718 | 0.544 | 1.38 | 0.856 | 0.405 | 0.518 |
| DVLVEYQGEGR [GNS_Y416] | 0.907 | 0.818 | 0.606 | 0.504 | 0.934 | 0.709 | 0.427 | 0.464 | 0.945 | 0.43 | 0.599 | 0.533 | 1.08 | 0.545 | 0.414 | 0.496 |
| DYYDLYGGKKF [PTPN11_Y66_E69K] | 0.74 | 0.581 | 0.388 | 3.27 | 0.971 | 0.698 | 1.89 | 3.05 | 1.31 | 0.421 | 9.68 | 1.22 | 0.825 | 11.5 | 1.21 | 5.9 |
| EAGKVYLKAAM [CBFB_Y96_P100A] | 0.893 | 0.781 | 0.462 | 0.408 | 1.26 | 0.775 | 0.565 | 0.449 | 1.03 | 0.568 | 0.742 | 0.484 | 1.26 | 0.674 | 0.333 | 0.494 |
| EAIAKYDLKAT [GRB2_Y7_F9L] | 0.874 | 0.741 | 0.478 | 0.408 | 0.851 | 0.617 | 0.489 | 0.438 | 0.809 | 0.443 | 0.634 | 0.464 | 0.713 | 0.466 | 0.412 | 0.458 |
| EAKENYGKTLK [CHL1_Y291_T287A] | 0.754 | 0.503 | 0.432 | 0.338 | 0.52 | 0.495 | 0.348 | 0.424 | 0.655 | 0.305 | 0.441 | 0.314 | 0.732 | 0.456 | 0.327 | 0.328 |
| EALDFCGEVRT [PTEN_Y155_Y155C] | 1.07 | 0.645 | 0.534 | 0.583 | 1.41 | 0.984 | 0.882 | 0.545 | 1.31 | 0.674 | 1.09 | 0.691 | 1.48 | 0.803 | 0.482 | 0.642 |
| EDASEYFENFI [PARP4_Y214_F215Y_YF] | 0.812 | 0.544 | 0.436 | 0.613 | 1.39 | 1.07 | 0.798 | 0.618 | 2.37 | 0.598 | 1.58 | 0.806 | 1.47 | 1.48 | 0.58 | 0.624 |
| EDDIIYTQDFM [STK11_Y362_T367M] | 0.984 | 0.65 | 0.466 | 1.03 | 1.21 | 0.889 | 0.697 | 1.1 | 1.49 | 0.776 | 1.25 | 0.746 | 1.31 | 0.911 | 0.784 | 0.992 |
| EDGCIYPATIA [SMN1_Y109] | 0.927 | 0.671 | 0.589 | 0.587 | 1.1 | 0.87 | 0.744 | 0.539 | 1.07 | 0.513 | 0.727 | 0.562 | 1.37 | 0.546 | 0.545 | 0.577 |
| EDGRLYAVKCS [PKMYT1_Y136_R140C] | 0.795 | 0.714 | 0.473 | 0.589 | 0.861 | 0.82 | 0.594 | 0.63 | 0.972 | 0.529 | 0.66 | 0.609 | 1.12 | 0.513 | 0.549 | 0.792 |
| EEAAGYAQESQ [CAMKV_Y491] | 1.05 | 0.718 | 0.577 | 0.401 | 1.2 | 0.935 | 0.523 | 0.604 | 1.22 | 0.547 | 0.691 | 0.543 | 1.39 | 0.545 | 0.325 | 0.661 |
| EEEPVYKAEPE [HCLS1_Y360_E361K] | 0.797 | 0.509 | 0.569 | 0.675 | 1.36 | 0.826 | 0.573 | 0.717 | 1.06 | 0.576 | 0.891 | 0.525 | 1.49 | 0.597 | 0.518 | 0.595 |
| EEGENYQKGER [CHGB_Y173] | 0.816 | 0.602 | 0.436 | 0.518 | 0.963 | 0.797 | 0.53 | 0.463 | 0.921 | 0.518 | 0.731 | 0.571 | 1.15 | 0.509 | 0.425 | 0.467 |
